Reference: patent US20230355708A1 (published 2023)
Where two headings read alike, the source gives them in different places.

What was measured:
Yu2 gp120 [1] = experiment: SPR
Yu2 gp120 [2] = experiment: SPR; remark: listed apart in the source

B1: CVN (other)
chain: LGKFSQTCYNSAIQGSVLTSTCERTNGGYNTSSIDLNSVIENVDGSLKWQPSNFIETCRNTQLAGSSELAAECKTRAQQFVSTKINLDDHIANIDGTLKYE
Yu2 gp120 [1]
  Kd: 622 pM
Yu2 gp120 [2]
  Kd: 622 pM
